Results published in publication PMC11237882 (Protein Science : A Publication of the Protein Society, 2024).

Key:
Homer1 EVH1 domain = Homer1 EVH1 domain (Homo sapiens, UniProt Q86YM7); conditions: read-out: K D ^Homer1; pH 7.6; SD
[1] = tested on: ENAH EVH1 domain tetramers; assay: Peptide SPOT array, ENAH EVH1 domain tetramers; format: binding, human; conditions: SPOT intensities, tetrameric EVH1, 0.5 μM monomer
Procedure: Protein expression was carried out as above.
ABI3 substitution and overlapping motif SPOT arrays were synthesized at the MIT Biopolymer Facility using an Intavis SPOT synthesis peptide arrayer system. At the N‐terminus, the 20‐mer peptides were capped with a Gly‐Ser linker and acetylated. The peptides were linked to the cellulose membrane by a C‐terminal PEG spacer. For the overlapping motif array, because many of the peptide sequences contain additional Ena/VASP and Homer motifs, each peptide was also synthesized as a control where the internal proline tract was mutated to poly‐glycine. The protocol for blocking and probing the membrane was adapted from Frank and Dübel ([2006]). […] The following day, the array was washed in T‐TBS (TBS + 0.05% Tween‐20) and then incubated with the protein sample in MBS (+1 μM DTT) for 3 h at room temperature. All array experiments were carried out with streptavidin‐Cy3 (Thermo Fisher) pre‐tetramerized EVH1 at a final monomer concentration of 0.5 μM. The membrane was washed three times in T‐TBS prior to scanning on a GE Amersham Imager 680. SPOT intensities were calculated using the ImageJ analysis software (Abràmoff et al., [2004]). No background correction was performed. For the overlapping peptides, the final intensity was calculated as the difference between the intensity of the wild‐type and motif knockout control. […]

[2] = target: ddEVH1 (D. discoideum EVH1 domain of ddVASP) (Dictyostelium discoideum, UniProt Q5TJ65)
ddEVH1 (D. discoideum EVH1 domain of ddVASP), sequence (Q5TJ65 with tags, fused parts or gaps): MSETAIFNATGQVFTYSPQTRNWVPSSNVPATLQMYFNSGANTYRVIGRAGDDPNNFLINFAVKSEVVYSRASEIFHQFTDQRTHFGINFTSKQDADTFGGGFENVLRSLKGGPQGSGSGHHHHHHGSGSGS

Homer1 EVH1 domain, sequence (Q86YM7 with tags, fused parts or gaps): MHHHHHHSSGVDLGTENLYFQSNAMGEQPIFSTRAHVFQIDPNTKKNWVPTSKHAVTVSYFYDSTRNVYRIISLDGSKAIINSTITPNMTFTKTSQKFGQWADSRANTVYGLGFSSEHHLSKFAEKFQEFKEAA

## DIESDFPPPPEDFPAADELP [FAT1]
Homer1 EVH1 domain
  Kd: 98 ± 7 µM
[1]
  Binding to ENAH relative to Homer1 EVH1 in the SPOT array assay: two‐ to three‐fold better
[2]
  ddEVH1 binding, result in words: bound poorly
